{"source": "paper PMC3017776", "about": "“Coordinated transcriptional regulation of two key genes in the lignin branch pathway - CAD and CCR - is mediated through MYB- binding sites”", "binders": {"B1": {"name": "EgCAD2 [-203/-129] mutated MYBa (dsDNA)", "DNA 1": "TGGGAATGGCTAAAAAGCAAGTCTTGACCCTTAACCCACCCCACTGGTTCAGTCGACGCACCTCTGGTTAGGTATTGCTTGCTGAG", "DNA 2": "CTCAGCAAGCAATACCTAACCAGAGGTGCGTCGACTGAACCAGTGGGGTGGGTTAAGGGTCAAGACTTGCTTTTTAGCCATTCCCA"}, "B2": {"name": "EgCAD2 [-203/-129] mutated MYBa + MYBb (dsDNA)", "DNA 1": "B1 DNA 1 with G67A, T68G, T69A, A70T, G71C, G72T", "DNA 2": "B1 DNA 2 with C15A, C16G, T17A, A18T, A19C, C20T"}, "B3": {"name": "EgCCR [-119/-70] mutated MYB (dsDNA)", "DNA 1": "CCTTATAGGGGAGCGGGTCATTTCATGCGGTTCTAGAGTCTTGGTAAACATTGTC", "DNA 2": "GACAATGTTTACCAAGACTCTAGAACCGCATGAAATGACCCGCTCCCCTATAAGG"}, "B4": {"name": "EgCAD2 [-203/-129] mutated MYBb (dsDNA)", "DNA 1": "TGGGAATGGCTAAAAAGCAAGTCTTGACCCTTAACCCACCCCACTGGTTCACCTACCGCACCTCTGAGATCTTATTGCTTGCTGAG", "DNA 2": "CTCAGCAAGCAATAAGATCTCAGAGGTGCGGTAGGTGAACCAGTGGGGTGGGTTAAGGGTCAAGACTTGCTTTTTAGCCATTCCCA"}}, "note": "Positions count from the first letter of the chain named.", "data": [{"target": "EgMYB2 (R2R3 MYB factor) (UniProt Q70KC5 1-321)", "sequence (Q70KC5 entry or part of it)": "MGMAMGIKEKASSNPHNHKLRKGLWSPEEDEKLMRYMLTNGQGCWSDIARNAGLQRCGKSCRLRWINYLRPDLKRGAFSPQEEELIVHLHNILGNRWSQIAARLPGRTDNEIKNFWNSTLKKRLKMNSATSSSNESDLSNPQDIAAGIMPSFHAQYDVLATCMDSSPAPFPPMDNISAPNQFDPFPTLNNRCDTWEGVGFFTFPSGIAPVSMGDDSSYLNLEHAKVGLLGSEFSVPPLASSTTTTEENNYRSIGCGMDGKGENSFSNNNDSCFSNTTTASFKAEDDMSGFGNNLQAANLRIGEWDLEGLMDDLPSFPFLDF", "test": "EMSA; EMSA: 25 mM Tris-HCl pH 8, 250 mM NaCl, 10% glycerol, 7 mM beta-mercaptoethanol, 2 ug poly(dIdC), 25 ul, 30 min, room temperature; 0.125 ug EgMYB2; 4.8% PAGE in 0.5x TBE, 2.5% glycerol", "conditions": "protein: recombinant; tags: GST (N-terminal, pGEX-5X-1); label: 32P; blunt", "values": [{"binder": "B1", "binding result": "no binding"}, {"binder": "B2", "binding result": "no binding"}, {"binder": "B3", "binding result": "no binding"}, {"binder": "B4", "binding result": "no binding"}]}]}
